Assay results from article PMC6908968 (Cell, 2019).
Where two headings read alike, the source gives them in different places.

T1: thermolysin-cleaved EBOV GP on Jurkat-GP cells (cleaved GP) (Zaire ebolavirus, Makona (GP1 core …, strain))
T1 chain 1: not shown
T1 chain 2: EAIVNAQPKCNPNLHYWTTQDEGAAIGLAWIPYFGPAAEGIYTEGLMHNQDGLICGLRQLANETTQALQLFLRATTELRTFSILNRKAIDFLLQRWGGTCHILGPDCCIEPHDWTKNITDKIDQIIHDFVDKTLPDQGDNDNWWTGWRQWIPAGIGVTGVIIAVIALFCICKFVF

B1: 9.1.c1500 (antibody, V domains shown)
VH: QLQLQESGPGLVKPSETLSLTCTVSGGSISSSSYFWGWIRQPPGKGLELIGIIYYTGNTNYNPSLKSRVTISVDTSKNQFSLKLSSVTAADTAVYYCARSLEAHLLYYYAMDVWGQGTTVTVFS
VL: QSALTQPRSVSGSPGQSVTISCTGTSSDVGGYNYVSWYQQHPGKAPKLMIYDVSQRPSGVPDRFSGSKSGNTASLTISGLQAADEADYYCCSYAGSSWVFGGGTKLTVL
B2: 5.6.c3363 (antibody, V domains shown)
VH: EVKLVESGGDLIQPGGSLRLSCAGSGFTFSNYAMSWVRQAPGKGLEWVSGLSGSGRNTYYADSVKGRFTISRDNSQNTLFLQMNSLRAEDTAIYYCATASVWSGYVLQYWGQGALVIVSS
VL: DIQMTQSPSSLSASVGDRVTITCRASQNINDWLAWYQQKPGKAPKLLIFRASSLESGVPSRFSGSGFGTEFTLTISSLQPDDFASYYCQQYKSYPMYTFGQGTKLDIN
B3: mAb 5.1.10B3 (antibody, V domains shown)
VH: EVQLVESGGGLVQPGGSLRLSCAASGFTFRSYDMHWVRQATGKGLEWVSAIGTAGDTYYPGSVKGRFTISRENAKNSLYLQMNSLRAEDTAVYYCARVRFGDTAVDYWGQGTLVTVSS
VL: DIQMTQSPSSLSASVGDRVTITCRASQSISSFLNWHQQKPGKAPKLLIYAASSLQSGVPSRFSGSGSGTDFTLTISSLQPEDFAIYYCQQSYISPFTFGPGTKVDIK
B4: 9.1.c1533 (antibody, V domains shown)
VH: QVQLQESGPGLVKPSGTLSLTCTVSGGSISSNNWWSWVRQSPGKGLEWIGEIYHSGSTNYNPSLKSRVTISVDKSKNQFSLKVSSVTAADTAVYYCARGDQLIYYFDYWGQGTLVTVSS
VL: QSALTQPASVSGSPGQSITISCTGSSSDVGVYDFVSWYQQHPGKAPKLMIYEVSNRPSGVSNRFSGSKSGNTASLTISGLQAEDEANYYCSSYTSSITNVVFGGGTKLTVL
B5: 5.6.c3105 (antibody, V domains shown)
VH: EEQLVESGGDLVQPGGSLRLSCAASGFTFRSYDMYWVRQVTGKGLEWVSVIGAGGDTYYSDAVKGRFTISRENAKNSLYLQMNNLRAGDTAVYYCARSFGFLYGFDVWGHGTTVTVSS
VL: ENVLTQSPGTLSLSPGERATLSCRASQSISSKYFAWYQHKPGQAPRVLIYAASSRATGVPDRFSGSGSGTDFTLTISRLEPEDFAVYYCQQYDSSPITFGQGTRLEIK
B6: mAb 2.1.6C11 (antibody, V domains shown)
VH: GAEVKKPGASVKVSCKASGYTFTTYDINWVRQATGQGLEWMGWMNPNSGNTGYAQKFQGRVTMTRNTSISTAYMELRSLRSEDTAVYYCAPGVTFWGQGTLVTVSS
VL: PSSLSAPVGDRVTITCRASQGISNSLAWFQQKPGKAPKSLIYAASSLQSGVPSNFSGSGSGTDFTLTISSLQPEDFATYYCQQYNSYPWTFGQGTKVEIK
B7: 9.1.c2296 (antibody, V domains shown)
VH: QVQLVESGGGVVHPGRSLRLSCAASGFTFSTYGMHWVRQAPGKGLEWVAVISYDGTNKYYADSVKGRFTTSRDNSKNTLYLQMNSLRAEDTAVYYCAKGEAYYDILTGNIDMWGQGTMVTVSS
VL: DIQMTQSPSTLSASVGDRVTITCRASQSISYWLAWYQQKPGKAPKVLIYDVSSLESGVPSRFSGSGSETEFTLTISSLQPDDFATYYCQQYHSYPLTFGGGTKVEIK
B8: 5.6.c4515 (antibody, V domains shown)
VH: QVQLVESGGDVVQPGRSLRLSCAASGFIFSTYGMHWVRQTPGKGLEWVAVLYYDGRNGYYADSVKGRFTISRDNSKNTLYLQMNSLRAEDTAVYYCARDGCSSTDCLLYYYAMDVWGQGTTVTVSS
VL: QSALTQPPSASGSPGQSVTISCTGTSSDVGAYNYVSWYQQHPGKGPKLMIYEVNQRPSGVPGRFSGSKSGNTASLTVSGLQTEDEADYFCSSYAGSNTVVFGGGTKLTVL
B9: 5.6.c4516 (antibody, V domains shown)
VH: EVHLVESGGGLVQRGGSLRLSCVASKFSFSFYSMGWVRQPPGKGLEWVSFISISGTTIYYEDSVKGRFTISRDDAKNSLYLQMNSLRDEDTAVYYCARIPQAAFHFDYWGQGTLVAVSS
VL: QSALTQPASVSGSPGQSITISCTGSSSDVGSYNLVSWYQQHPGKAPKLMIYEGSSRPSGVSNRFSGSKSGNTASLTISGLQAEDEADYYCCAYAGTRTWLFGGGTKVTVL
B10: 9.1.c1853 (antibody, V domains shown)
VH: EVQLVQSGAEVKKPGESLRISCKGSGNSFSSYWISWVRQKPGKGLEWMGRIDPSDSYTSYSPSFQGHVTISADKTNSTAYLQWSGLKASDTAVYYCAREVAGEEIFYYYYMDVWGKGTPVTVSS
VL: EIVLTQSPVTLSLSPGEKATLSCRASQSVISSYLVWYQQKPGQAPRLLIYGASNRASGIPDRFSGSGSGTDFTLTISRLEPEDFAVYYCQLYGSLPRWTFGQGTEVQIK
B11: 9.1.c1617 (antibody, V domains shown)
VH: QVQFVESGGGLVKPGGSLRLSCTTSGFTFSDYYMSWIRQAPGKGLEWVSYISRSGNIIYYPDSVKGRFTISRDNAKNSLYLQMNSLRVEDTAVYYCAGGVQRGYNYYYYGMYVWGQGITVTVSS
VL: DIVMTQSPLSLPVTPGEPASISCRSSQSLLHSNGYNYLDWYLQRPGQSPQLLIYLGSNRASGVPDRFSGSGSGTDFTLKISRVEAEDFGFYYCMQALQTPYTFGQGTKLEIR
B12: 9.1.c1965 (antibody, V domains shown)
VH: QVQLVQSGAEVKKPGASVKVSCKASGYTFTRYGINWVRQAPGQGLEWMGWISAYNGHTSYAQKLQGRVTMTTDTSTSTAYMELSSLRSDDTAVYYCARDAGMVRPYYFDYWGQGTLVTVSS
VL: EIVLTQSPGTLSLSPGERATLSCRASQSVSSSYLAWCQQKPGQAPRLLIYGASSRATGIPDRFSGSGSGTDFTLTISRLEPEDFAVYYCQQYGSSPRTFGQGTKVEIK
B13: 9.1.c1482 (antibody, V domains shown)
VH: QLQLQESGPGLVKPSETLSLTCTVSGGSITSGSNYWGWIRQSPGKGLEWIGSIYYSGSTYYNPSLKSRVTTSVDTSKNQFSLRMSSVTAADTALYYCVRHLSTELLFGCFDPWGQGTLVTVSS
VL: DIQMTQSPSTLSASVGDRVTITCRASQSITGWLAWYQQKPGKAPKLLIYDASSLESGVPSRFSGSGSGTEFTLTISSLQPDDFATYYCLQYHSYSSFGQGTKLEIK

What was measured:
[1] = molecular target: T2, EBOV GP ectodomain residues 1-636 (GPec) (Zaire ebolavirus, strain  …, UniProt Q05320)
[2] = molecular target: T1, thermolysin-cleaved EBOV GP on …
[3] = molecular target: EBOV glycoprotein (GP), Makona strain, full length mature, on Jurkat-GP cells (native GP) (Zaire ebolavirus, Makona (stand-in: …, UniProt P87666, strain))
[4] = molecular target: T2, EBOV GP ectodomain residues 1-636 (GPec); experiment: ELISA; settings: both partners purified

Binder | binding result [1] | binding result [2] | binding result [3] | binding result [4]
B1 | binds | binds | – | –
B2 | binds | binds | binds | –
B3 | – | – | – | binds
B4 | binds | binds | – | –
B5 | binds | binds | binds | –
B6 | – | – | – | binds
B7 | binds | binds | – | –
B8 | binds | binds | – | –
B9 | binds | binds | – | –
B10 | binds | binds | – | –
B11 | binds | binds | – | –
B12 | binds | binds | – | –
B13 | binds | binds | – | –
